Reference: the nanobody polyreactivity screen of Harvey et al. (2022)

Experiment: yeast display, Sf9 membrane polyspecificity reagent, FACS + sequencing; frameworks hold sequencing errors
How it was run: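 Galactose induction of a Saccharomyces cerevisiae BJ5465 synthetic nanobody display library ran 36–48 hours. The cells were then stained for 1 hour at 4 °C with 10% biotinylated, detergent-solubilized Sf9 membrane reagent, pulled down on streptavidin microbeads and FACS-sorted into low and high (top ~1%) gates on expression and reagent-binding fluorescence. Labels for polyreactivity follow the gate of origin.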

Sequence | polyreactivity (PSR sort gate)
QVQLVESGGGLVQAGGSLRLSCAASGRTFSSYAMGWYRQAPGKERELVAAITRTGGRTYYAYSVKGRFTISRDNAKNSVYLQMNSLKPEDTAVYFCAALYIYRTFAALSRYDYWGQGTQVTVSS | high polyreactivity
QVQLVESGGGLVQAGGSLRLSCAASGYIFYNAMGWYRQAPGKERELVASISRRSGSTYYADSVKGRFTISRDNAKNTVYLQMNSLKPEDTAVYYCAADRPPWETYGYDYWGQGTQVTVSS | low polyreactivity
QVQLVESGGGLVQAGGSLRLSCAASGSIFRNNAMGWYRQAPGKERELVAVISRRSGNTYYADSVKGRFTISRDNAKNTVYLQMNSLKPEDTAVYYCAADYSKSSIRGDYWGQGTQVTVSS | low polyreactivity
QVQLVESGGGLVQAGGSLRLSCAASGSTFWSYAMGWYRPAPGKERELVAAITSGGRTYYADSVKGRFTISRDNAKNTVYLQMNSLKPEDTAVYYCNAVVRHTYRRFDYWGQGTQVTVSS | high polyreactivity
QVQLVDSGGGLVQAGGSLRLSCAASGRIFWHNAMGWYRQAPGKERELVAAITGGGSTYYADSVKGRFTMSRVNAKNTVYLQKNSLIPEDTAVYYCATLGSLRYYWPGYDYWGQGTQVTVSS | low polyreactivity
HVQLVESAGGLVQAGGSLRLSCAASGSILPRYAKGWYRQAPGKERELVAAISWSGGNTYYADSVKGRFTISRDNAKNTVYFQMNSLTPEDTAVSYSAARQYDWVIQGSRVRPVHYDYWGQGTQVNVSS | high polyreactivity
QVQLVESWGGLVQAGGSLRLSCADSGRIFRGYGMGWYIQAPGKERELVAVISYSGTPTYYADSVKGRFTISRDNAKNTVYLQMNSLKAEDTAVYYCAARLYWIPPSPSRYDYWLQGTQVTVSS | high polyreactivity
QVQLVESGGGLVHAGGSLRLSCAASGFIFGINAMGWYRQAPGKERELVATITSGGGTNYADSVKGRFTISRDNAKNTVYLQMKSVKPEDTAVYYCADEDDYIYFYLSMDYWGQCTQVTVSS | low polyreactivity
QVQLVESGGGLVQAGGSLRLSCAASGRIFYRYGMGRYRPAHGKVRELVASITRGGSTYYADSVKWRFTISRDNAKNTVYLQMNSLKPEDTAVYDSNRDIGGTSVLDDYWGQGTQVTVSS | low polyreactivity
QVQLVESGGGLVQAGGSLRLSCAASGSTFPKNAMGWYRQAPGKERELVAAINTGGSTYYADSVKGRFTISLDNAKYTVYLQMNSLKPEDTAVYYCAARDNYHRDVGHPYDYWGQGTQVTVSS | low polyreactivity
QVQLVESVGGIVQAGGSLRLSCAASGRTFYVYAMGWYRQARGKERELVASIRWRGSTYYADSVKGRFTISRDNAKNTVYLKMNSLKPEDTAVYYCAARYPYELGFDYWGQGTQVTVSS | low polyreactivity
QVQLVESGGGLVQAGGSLRLSCAASGRISRCYVMGRYRHAPGTERELVAAITWNSGSTYYADSVKGRFTISRDNAKNTVYLQMNSLTPEDTAVYYCAGVLYSRYQQYDYWGQGTQVTVSS | high polyreactivity
QVQLVESGGGLVQAGGSLRLSCAASGIIFSDYAMGWYRQAPGKERELVATITRSVRTSYADSVKGRFTISRDNAKNTVYLQMNSLKPEDTAVYYCNADFVGAVIAYDYLGQGTQVTVSS | low polyreactivity
QVQLVESGGGLVQAGGSLRLSCAASGFTFRFNAMGWYIQAPGKERELVAAIRQSGGSTYYADSVKGRFTISRDNAKNTVYLQMNSLKPEDTAVYYCATRYFTGYGLRPQFYYWGQGTQVTVSS | high polyreactivity
QVQLVESGGGLVQEGGSLRLICAASGSTFGVNAMGWYRQAPGKERELVAAISSSGYSTYADSVKGRFTISRDNAKNTVYLQMNSLKPEDTAVYYCNKTTLLTVEYDYWGQGTQVTVSS | low polyreactivity
QVQLVESGGGLVQAGGSLRLSCAASGNIFDVYAMGWYRQAPGKERELVADIDRGGTTYADSVKGRFTISRDNAKNTVYLQMNSLKPVDTAVYYCAADYVQGFGFYYQWLYDYWGQGTQVTVSS | low polyreactivity
QVQLVESLGGLVQAGGSLRLSCAASGFTFGAYAMGLYRPAPGKERELVATMDWRGSSTYYADSVKGRFTISRDNAKNTVYLQINCLKPVDTAVYYCAARLARGSYAYEYWGHGTQVTVSS | low polyreactivity
QVQLVESGGGLDQAGGSLRLSCAASGRIFRRYAMGWYRQAPGKERELVAAISTRGGSTYYADSVKGRFTISRDHAKNTVYLQMNSLKPEDTAVYYCNAEARSRRYRYDYWGQGTQVTVSS | high polyreactivity
QVQLVESGGGLVQAGGSLRLSCAASGRIFRGNTMGWYRQAPGKERELVAAITRGGSTSYADSVKGRFTISRDNAKNTVYLQMNSLKPEDTAVFYCATRTHGEGTRRDSWGQGTQVTVSS | low polyreactivity
QVQLVESGGGLVQAGGSLRLSCAASGRIFGIYTMGWYRQAPGKERELVAAITQGGGSTYYADSVKGRFTISRDNAKNTVYLQMNSLNPEDTAVYYCAARPKSPSGTRRYYWGQGTQVTVSS | high polyreactivity
QVQLVESRGGLVQAGGSLRLSCAASGSIFSWYTMGWSRQAPGKERELVARITTSGGTPRYADSVKGRFTISRDNAKNTVYLQMNSLKPEDTAVYYCAADRSPYWRGYGRYNYWGQGTQVTVSS | high polyreactivity
QVQLVESGGGLVQAGGSLRLSCAASGSTFPYNVMGWYRQAPGKEREFVAAISSSSGSTYYADSVKGRFTISRDNAKNTVYLQMNSLKPEDTAVYYCARRHPRQRQDGKVDYWGQGTQVTVSS | low polyreactivity

Sequence | polyreactivity (PSR sort gate)
QVQLVESGGGLVQAGGSLRISCAASGITFKKNDMGWYRQAPGKERELVAAISGRGGSTYYADSVKGRFTISRDNAKNTVYLQMNSLKPEDTAVYYCAADNFKGDSYGTGTYDYWGQGTQVTVSS | high polyreactivity
QVQLVESGGGLVQAGGSLRLSCPASGSTFRYYAMGWYRQAPGKERELVAAISYRGGSTKYADSVKGRFTISRDNAKNTVYLQMNSLKPEDTAVYYCNTAPWWRTSSDYEYWGQGTQVTVSS | high polyreactivity
QDQLVESGGGLVQAGGSLRLSCAASGSTFVRSVMGWYRQAPGKERELVAAISRRGGSTYYADSVKGRFTISRDNAKNTVYLQMNSQKPEDTAVYYCARTVGYRTLLESDSWGQGTQVTVAS | high polyreactivity
QVQLVESGGGLVQAGGSLRLSCAASGRIFPSYAMGWYRQAPGKERELVAGIRSGGGSTYYADSVKGRFTISRDNAKNTVYLQMNSLKPEDTAVYYCAADPGLYGDYPLAEDYWGQGTQVTVSS | low polyreactivity
QVQHVESGGGLVQAGGSLRLSCAASGSIFWVYVMGRYIQAPGQERELVAAITNGGSTDYADSVKGRFTISRDNAKNTVYLQMNSLKPEDTAFYYCAKRSTIWGRILITFDYWGQGTQVTVSS | low polyreactivity
QVQLVESGGGLVQAGGSLRLSCAASGRTFASNAMGWYRQAPGKERELVAAITISGGRTYYADSVKGRFTISRDNAKNTVYLQMNSLKPEDTAVYYCAAAKHSWRPSYYWGGYWGQGTQVTVSS | low polyreactivity
QVQLVESGGGLVQAGGSLRLSCAASGYTFAYYVMGWYRQAPGKERELVATIRSRAGRTYYADSVKERFTISRDNAKNTVYLQMNSLKPEDTAVYYCAAGWYYTYDYWGQGTQVTVSS | high polyreactivity
QVQLVESGGGLVQAGGSLRLSCAASGSIFKYNPMGWYRQAPGKEMELVATISGGGRTYYADSVKGRFTISRDNAKNTVYLQMNSLKPEDTAVYYCAARKRGTFTYDYWGQGTQVTVSS | high polyreactivity
QVQLVESGGGLVQAGGSLRLSCAASGNTFLPYAMGWYRQAPGKERELVAAISWSGGSTYYADSVKGRFTISRDNAKNTVYLQMNSLKPEDTAVYYCARRGYQRYLSSYYYWGQGTQVTVSS | high polyreactivity
QVQLVESGGGLVQAGGSLRLSCAASGFTFQENAMGWYRQATGKERELVAAISKSGGITYYADSVKGRFTISRENAKNNVYLQMNSLKPEDTAVYYCNIGNAYVVYTSGYDYWGQGTQVTVSS | low polyreactivity
QVQLVESGGGLVQAGGSLRLSCAASGFTLFTYAMGWYRQAPGKERELVAAIRSGGSTYYADSVKGRFTISRDTAKNTVYLQMNSLKPEDTAVYYCNAVYRYASGKYYYWGQGTQVTVSS | high polyreactivity
QVQLVESGGGLVQAGRSLRLSCAASGSTFGSNAMGWYRLAPGKERELVAAITRRGGSTYYADSEKGRFTISRDNAKNTVYLQMNSLKPEDTAVYYCAAQIHPRRDYSAFDYWGQGTQVTVSS | low polyreactivity
QVQLVESGGGLVQAGGSLRLSCAASGSTIVDYAMGWYRQAPGKERELVAAITSGDSTNYADSVKGRFTISRDNAKNTVYLLMKSLKPEDTAVYYCAARLRYSFWYWDDYWGQGTQVSVSS | high polyreactivity
QVQLVESGGGLVQAGGSLRLSCAASGSIFSKYAMGWYRQAPVKERELVAAIDWSGGSTYYADSVKGRFTISRDNAKNTVYLQMNSLKPEDTAVYYCNAEYVVADYGYYTIEFDYWGQGTQVTVSS | low polyreactivity
QVQLVDSGGGLDQAGGSLPLSCAASGSTFVAYAMGWYRQAPGKERELVADNSTSDGSTRYADSVKGRFTISRDNAKNTVYLQMNSLKPEDTAVYYCAAGSEYYSYGGVRFSFYYWGQGTQVTVSS | low polyreactivity
QVQLVESGGGLVQAGGSLRLSCAASGITFTDNTMGWYRQAPGKERELVAAISRSGTSTYYADSVKGRFTISRDNAKNTVYLQMNSLKPEDTAVYYCAALSYVPSPYYYWGQGTQVTVSS | high polyreactivity
QVQLVESGGGLVQAGGSLRLSCAASGIIFVFNAMGWYRQAPGKERELVAVISTSGDSTYYADSVKGRFTISRDNAKNTVYLQMNSLKPEDTAVYYCAADQRVTYRRGRAYDKYYYWGQGTQVTVSS | low polyreactivity
QVQLVESGGGLVQAGGSLRLICAASGIIFYKYTMGWYRQAPGKERELVAAITKSGVRTYYADSVKGRFTISRDNAKNTVYLQMNSLKPEDTAVYYCAAKTPTKDRGSDFDYWGQGTQVTVSS | high polyreactivity
QVQLVESGGGLVQAGGSLRLSCAASGSIFYAYVMGWYRQAPGKERELVAAIDIGGGTYADSVKGRFTISRDNAKNTVYLQMNMLKPEDTAVYYCAKAGYFSRGVYVYYLDEYDYWGQGSQVTVSS | high polyreactivity
QVQLVESGGGLVQAGGSLRLSCAASGFTFSKYAMGWYRQAPGTERELVASIDDGGSTNYADSVKGRFTISRDNAKTTVYLQMNRLNPEDTAVYYCNASYPTGYWYYVIVQYDYWGQGTQVTVSS | low polyreactivity
QVQLVESGGGLVQAGGSLRLSCAASGGTFWAYTMGWYRQAPGKERELVATISFGTGNTYYADSVKGRFTISRDNAKNTVYLQMNSLKPEDTAVYYCAAQWPELTRSYVTVEVEYWGQGTQVTVSS | low polyreactivity
